Test [1] deals with T1, human CD22-ECD-His protein (human, UniProt P20273 20-687).
T1 construct: Made in house in HEK293E; also called hCD22-ECD-His; recombinant human CD22-ECD His protein; not shown: His tag
T1 sequence: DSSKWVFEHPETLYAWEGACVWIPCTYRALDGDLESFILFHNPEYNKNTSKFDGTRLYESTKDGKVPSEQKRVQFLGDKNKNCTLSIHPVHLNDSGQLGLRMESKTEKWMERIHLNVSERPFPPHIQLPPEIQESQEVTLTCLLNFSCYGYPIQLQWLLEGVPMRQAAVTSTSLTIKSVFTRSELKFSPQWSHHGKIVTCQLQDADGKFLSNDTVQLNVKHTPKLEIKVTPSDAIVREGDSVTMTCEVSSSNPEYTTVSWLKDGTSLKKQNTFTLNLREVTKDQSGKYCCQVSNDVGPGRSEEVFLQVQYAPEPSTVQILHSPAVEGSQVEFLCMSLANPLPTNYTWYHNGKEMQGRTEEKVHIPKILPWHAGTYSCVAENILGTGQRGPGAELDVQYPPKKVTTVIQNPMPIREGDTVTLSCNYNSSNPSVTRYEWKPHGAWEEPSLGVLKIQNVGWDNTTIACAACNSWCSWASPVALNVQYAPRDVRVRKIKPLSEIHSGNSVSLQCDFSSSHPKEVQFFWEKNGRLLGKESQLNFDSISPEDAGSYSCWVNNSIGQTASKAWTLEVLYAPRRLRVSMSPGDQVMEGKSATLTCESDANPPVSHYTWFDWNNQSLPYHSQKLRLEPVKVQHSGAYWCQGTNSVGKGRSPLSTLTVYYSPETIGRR
Briefly: ELISA, Ab 0.10 nM. The method in brief:
(§1)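 TMB colour read-out, stopped with 1.0 N HCl after 30 min at room temperature, measures binding of CD22 human-murine chimeric antibodies to plate-coated CD22-ECD-His (2 μg/mL, overnight 4 °C). Antibody and HRP secondary steps each ran 2 h at 37 °C.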
For orientation: An ELISA detects its analyte on a solid surface through an enzyme-linked reagent.

The target in test [2] is T1, human CD22-ECD-His protein. Briefly: ELISA, Ab 10.00 nM. In short, it runs like this:
as §1

The target of test [3] is T1, human CD22-ECD-His protein. Description: ELISA, Ab 0.0001 nM. The method in brief: as §1
Test [4] deals with T2, murine CD22 protein (ACROBiosystems, SI2-M52Ha) (murine, UniProt P35329 22-708).
T2 construct: extracellular domain; also called murine CD22-ECD; murine CD22-ECD-His
T2 sequence (looked up): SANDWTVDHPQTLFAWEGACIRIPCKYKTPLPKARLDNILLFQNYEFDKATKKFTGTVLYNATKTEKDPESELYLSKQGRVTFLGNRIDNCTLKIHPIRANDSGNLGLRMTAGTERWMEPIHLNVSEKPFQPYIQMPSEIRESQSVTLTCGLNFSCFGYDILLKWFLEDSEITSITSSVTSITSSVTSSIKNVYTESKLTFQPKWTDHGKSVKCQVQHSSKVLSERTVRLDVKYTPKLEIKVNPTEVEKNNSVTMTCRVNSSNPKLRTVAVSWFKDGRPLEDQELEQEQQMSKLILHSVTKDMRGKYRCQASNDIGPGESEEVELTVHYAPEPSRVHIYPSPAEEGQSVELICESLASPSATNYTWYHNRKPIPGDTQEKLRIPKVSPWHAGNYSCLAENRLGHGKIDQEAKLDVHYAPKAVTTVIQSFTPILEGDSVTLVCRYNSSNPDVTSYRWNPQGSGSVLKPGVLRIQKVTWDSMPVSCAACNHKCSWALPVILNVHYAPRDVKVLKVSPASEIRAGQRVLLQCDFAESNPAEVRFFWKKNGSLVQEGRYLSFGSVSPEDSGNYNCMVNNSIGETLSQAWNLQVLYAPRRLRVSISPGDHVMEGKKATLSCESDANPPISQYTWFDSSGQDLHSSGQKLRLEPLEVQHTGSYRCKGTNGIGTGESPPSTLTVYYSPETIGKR
Briefly: ELISA, murine CD22-ECD-His coated. The method in brief:
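Read-out is TMB absorbance after a 30 min room-temperature development stopped with 1.0 N HCl. It reflects chimeric antibody bound to plate-coated CD22 (2 μg/mL), detected with an HRP-labelled secondary antibody. Antibody and secondary incubations each ran 2 h at 37° C.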

For another test, the target named is T3, human CD22 domain1-4-His (human, UniProt P20273 20-425).
T3 construct: also called hCD22 domain1-4-His; not shown: His tag
T3 sequence: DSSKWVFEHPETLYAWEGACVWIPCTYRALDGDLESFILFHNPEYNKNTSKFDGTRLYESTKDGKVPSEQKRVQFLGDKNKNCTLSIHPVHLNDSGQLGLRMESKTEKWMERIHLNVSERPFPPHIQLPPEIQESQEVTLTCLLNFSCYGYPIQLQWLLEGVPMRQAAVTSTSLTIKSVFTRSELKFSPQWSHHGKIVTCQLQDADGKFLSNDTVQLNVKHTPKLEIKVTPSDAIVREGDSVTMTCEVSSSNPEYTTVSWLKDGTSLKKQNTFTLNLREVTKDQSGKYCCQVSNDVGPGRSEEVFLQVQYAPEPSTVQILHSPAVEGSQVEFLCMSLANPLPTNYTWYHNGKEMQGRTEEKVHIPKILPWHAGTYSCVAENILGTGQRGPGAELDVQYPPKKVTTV
Description: ELISA, human CD22 domain1-4-His coated.

B1: F1.280.1 (antibody, human IgG1, kappa, V domains shown)
VH: QIQLVQSGPELKKPGETVKISCKASGYTFTTYGMSWVKQTPGKGLTWMGWINTDSGVPTYADDFKRRFAFSLEASATTAYLQINNLKNEDTATYFCARGGPDYWGQGTTLTVSS
VL: DILLTQSPATLSVTPGETVSLSCRASQSIYKNLHWYHQKSHRSPRLLIKYASDSISGIPSRFTGSGSGTNFTLSINSVKPEDEGIYYCLQGYIVPLTFGAGTKLELKR
notes: Human-murine chimeric IgG1, kappa
By EC50 (read off the curve) is commonly meant the concentration needed to bring the measured effect to its halfway point. For the molecule B1, the OD450 in test [1] was 2.38 OD450; in test [2], 2.3 OD450; in test [3], 0.24 OD450. In addition, the binding result in test [4] is on record as “no binding (tested: 100 nM)”. Also, in the test with human CD22 domain1-4-His, the half-maximal effective concentration (EC50 (read off the curve)) was ~0.05 nM.

B2: F2.70.2 (antibody, human IgG1, lambda, V domains shown)
VH: EVQLVESGGGLVKPGGSLKLSCAASGFTFSDYGMNWFRQAPEKGLEWVAYISRGSHTIYYADTVKGRFTISRDNAKNTLFLQMTSLRSNDTAMYYCVRMAGYYAMDYWGQGTSVTVSS
VL: QLVLTQSSSASFSLGASAKLTCTLSSQHSSYIIEWYQQQPLKPPKYVMELKKDGSHSTGDGIPDRFSGSSSGADRYLSISNIQPEDEAIYICGVGDTIKEQFVYVFGGGTKVTVLG
notes: Human-murine chimeric IgG1, lambda
For B2, the OD450 in test [1] was 1.86 OD450; in test [2], 2.03 OD450; in test [3] it was 0.18 OD450. In addition, the binding result in test [4] was “no binding (tested: 100 nM)”. In addition, the concentration giving a half-maximal response (EC50 (read off the curve)) in the test with human CD22 domain1-4-His was ~0.03 nM.

B3: F2.180.16 (antibody, human IgG1, lambda, V domains shown)
VH: EVKLVESGGGLVLPGGSLKISCAASGFTFSDYYMYWIRQTPDKRLEWVAYISNTGYSTFYPDSVKGRFTVSRDNAKNTLYLQMSRLQSEDTAMYYCARHGILYAMDYWGQGTSVTVSS
VL: QPVLTQSSSASFSLGASAKLTCTLSSQYSTYTIGWYQQQPLKPPKYVMELKHDGSRHTGDGIPDRFSGSSSGADRYLSISNIQPEDEATYICGVGDTIKEQFMYVFGGGTKVTVLG
notes: as for B2
On to B3, for which the figures for the OD450 in test [1], in test [2] and in test [3] were 1.8 OD450, 2.08 OD450 and 0.31 OD450, respectively. The binding result (in test [4]; with human CD22 domain1-4-His) was “no binding (tested: 100 nM)” throughout.

B4: F2.104.10 (antibody, human IgG1, lambda, V domains shown)
VH: EVQLVESGGGFVKPGGSLKLSCAASGFTFSDYGMNWFRQAPEKGLEWVAYISRGSHTIYYADTVKGRFTISRDNAENTLFLQMTSLRSNDTAMYYCVRMAGYYAMDYWGQGTSLTVSS
VL: QLVLTQSSSASFSLGASAKLTCTLSSQHSSYIIEWYQQQPLKPPKYVMEVKKDGSHSTGDGIPDRFSGSSSGADRYLSISNIQSEDEAIYICGVGDTIKEQFVYVFGGGTKVTVLG
notes: as for B2
B4: the OD450 in test [1] is 1.94 OD450; in test [2] it was 2 OD450; in test [3] it was 0.32 OD450. In addition, the binding result in test [4] is “no binding (tested: 100 nM)”. Moreover, the half-maximal effective concentration (EC50 (read off the curve)) with human CD22 domain1-4-His is ~0.04 nM.

B5: F2.343.16 (antibody, human IgG1, lambda, V domains shown)
VH: QVQLKQSGPGLVQPSQSLSITCTVSGFSLTGYGVQWVRQSPGKGLEWLGVIWGGGGTDYNAAFISRLNIIKDNSKSQVFFKMNSLQADDTAIYYCARYSKYGHFDVWGTGTAVTVSS
VL: QAVVTQESALTTSPGETVTLTCRSSTGAVTTSNYANWVQEKPDHLFTGLIGGTYNRVPGVPARFSGSLIGDKAALTITGAQTEDEAIYFCALWYSNHFWVFGGGTKLTVLG
notes: as for B2
As for B5, the OD450 in test [1] was 1.93 OD450; in test [2] it was 1.84 OD450; in test [3] it was 0.25 OD450. The binding result in test [4] is “no binding (tested: 100 nM)”. Besides, in the test with human CD22 domain1-4-His, the concentration giving a half-maximal response (EC50 (read off the curve)) was ~0.06 nM.

B6: F1.257.3 (antibody, human IgG1, kappa, V domains shown)
VH: QVQLQQSGPELARPGASVKLSCKASGYTFTSYGISWVKQRTGQDLEWIGEIYPKLGTTYYNEKFKDKATLTTDRSSSTAYMALRSLTSEDSAVYFCACPHYYATRGGDYWGQGTTLTVSS
VL: EIVLTQSPATLSVTPGDSVTFSCRASQSISNHLHWYQQKSHESPRLLIRYASQSISGIPSRFSGSGSGTDFTLSLSSVETEDFGVYFCQQSHSWPYTFGGGTKLEIAR
notes: as for B1
Regarding B6, the OD450 in test [1] was determined as 2.49 OD450; in test [2], 2.64 OD450; in test [3], 0.28 OD450. Further, in test [4], the binding result is given as “no binding (tested: 100 nM)”. Moreover, the “EC50 (read off the curve)” value with human CD22 domain1-4-His is ~0.3 nM.

B7: F1.245.2 (antibody, human IgG1, kappa, V domains shown)
VH: EVQLQQSGAELVKPGASVKLSCTGSGFNIKDYYIHWVKQRTEQGLEWMGRIDPEDGETEYAPKFQDEATITSDTSSNTAYLQLSSLTYEDTAVYYCAREAAGYFYRGSSYGYFDVWGTGTTVTVSS
VL: DFQMTQTTSFLSASLGDRVTISCSASQDISNYLNWYQQKPDGTVKLLIYYTSSLHSGVPSRFSGSGSGTDYSLTISNLEPEDIATYYCQQYSMLPYTFGGGTKLEMER
notes: as for B1
B7: the OD450 in test [1] was 2.57 OD450; in test [2], 2.54 OD450; in test [3] it was 0.44 OD450. The binding result in test [4] was “no binding (tested: 100 nM)”. Besides, the “EC50 (read off the curve)” value with human CD22 domain1-4-His was ~0.02 nM.

B8: F1.60.9 (antibody, human IgG1, kappa, V domains shown)
VH: QVQLKESGPGLVAPSQSLSITCTVSGLSLNNYGVSWVRQPPGKGLEWLGVIWGDGSTNYHSALISRLSISKDNSKSQVFLKLNSLHTDDTATYYCAINWGDYWGQGTTLIVSS
VL: DIKMTQSPSSMNASLGERVTITCKASQDINSYLSWFQQKPGKSPKILIYRANRLIDGVPSRFSGSGSGQDYSLTISSLEYEDMGIYYCLQYGVFPLTFGAGTKLELKR
notes: as for B1
Regarding B8, the OD450 was 2.59 OD450 in test [1], 2.55 OD450 in test [2] and 0.13 OD450 in test [3]. In addition, the binding result (in test [4]; with human CD22 domain1-4-His) was “no binding (tested: 100 nM)” throughout.

The record behind these values is patent publication US20240084003A1 (SIMCERE ZAIMING PHARMACEUTICAL, published 2024).
